Results taken from article PMC5123055.

What was measured:
[1] = biological target: ribosome (S. cerevisiae); assay: quantitative ribosome binding assay (ribosomes isolated from cell extract, immunoblot with αmyc); settings: ribosomes isolated under low-salt conditions; parent: 45.4
[2] = biological target: ribosome (S. cerevisiae) (S. cerevisiae (endogenous in yeast extract)); assay: co-sedimentation; ribosome binding assay: cell extract (cycloheximide) spun through a low-salt sucrose cushion (25% sucrose, 20 mM Hepes/KOH pH 7.4, 120 mM potassium acetate, 2 mM magnesium acetate), 400,000 g, 4 °C, 25 min; immunoblot of supernatant and ribosomal pellet; strains: wild type, Δzuo1Δssz1, RAC-H128Q, Δssb1Δssb2 with Ssb1 variants

| response (% of total mycSsb1) [1] | ribosome-binding, percent of the mycSsb1 control [2] | Substance |
| --- | --- | --- |
| 3 |  | N-terminally myc-tagged Ssb1 (mycSsb1) (from UniProt P11484) K567E; R568E; K603D; R604D |
| 1.9 |  | N-terminally myc-tagged Ssb1 (mycSsb1) (from UniProt P11484) K567E; R568E; R596D; K597D; K603D; R604D |
|  | < 50% | mycSsb1 D1 (R596D/K597D) (from UniProt P11484 1-613) (natural protein) |
|  | < 50% | mycSsb1 D2 (K603D/R604D) (from UniProt P11484 1-613) (natural protein) |
|  | < 50% | mycSsb1 LBC (K567E/R568E) (from UniProt P11484 1-613) (natural protein) |
